# Laboratory results: the RNAGym collection of RNA variant scans (doi:10.7554/elife.80360)
# B1: CPEB3 Ribozyme (parent)
# chain: GGGGGCCACAGCAGAAGCGUUCACGUCGCGGCCCCUGUCAGAUUCUGGUGAAUCUGCGAAUUCUGCUGU
# Variants of: B1
# Test: self-cleavage, relative activity (ratio to wild type); higher = more cleavage; co-transcriptional
row,Variant,self-cleavage
1,C39U G48U,0.941
2,C39U G50C,0.744
3,C39U G50U,0.895
4,C39U G56A,1
5,C39U G56C,0.887
6,C39U G58A,0.873
7,C39U G58C,0.946
8,C39U G58U,0.961
9,C39U G65A,0.56
10,C39U G65U,0.498
11,C39U G68C,0.97
12,C39U G68U,0.95
13,C39U U43C,0.687
14,C39U U44A,0.517
15,C39U U46C,0.822
16,C39U U46G,0.997
17,C39U U49A,0.971
18,C39U U49G,0.975
19,C39U U53C,0.382
20,C39U U53G,0.61
21,C39U U55G,0.661
22,C39U U61A,0.766
23,C39U U61C,0.435
24,C39U U62A,0.702

row,Variant,self-cleavage
1,C39U U62C,0.514
2,C39U U62G,0.622
3,C39U U64C,0.699
4,C39U U64G,0.733
5,C39U U67A,0.902
6,C39U U67C,0.882
7,C39U U67G,0.923
8,C39U U69C,1.04
9,A40C A42C,0.26
10,A40C A42G,0.482
11,A40C A42U,0.363
12,A40C A51G,0.494
13,A40C A51U,0.324
14,A40C A52G,0.583
15,A40C A59C,0.346
16,A40C A59G,0.515
17,A40C A60U,0.217
18,A40C C45A,0.534
19,A40C C45G,0.531
20,A40C C45U,0.497
21,A40C C54A,0.244
22,A40C C54U,0.523
23,A40C C57A,0.2
24,A40C C57G,0.316

row,Variant,self-cleavage
1,A40C C63G,0.315
2,A40C C63U,0.388
3,A40C C66A,0.232
4,A40C C66G,0.36
5,A40C C66U,0.443
6,A40C G41A,0.333
7,A40C G41C,0.324
8,A40C G47A,0.791
9,A40C G47U,0.905
10,A40C G48U,0.884
11,A40C G50U,0.55
12,A40C G56A,0.546
13,A40C G56C,0.341
14,A40C G56U,0.401
15,A40C G58C,0.776
16,A40C G58U,0.727
17,A40C G65A,0.387
18,A40C G65C,0.332
19,A40C G68A,0.882
20,A40C U43A,0.356
21,A40C U43C,0.314
22,A40C U43G,0.281
23,A40C U46A,0.866
24,A40C U46C,0.273

row,Variant,self-cleavage
1,A40C U46G,0.802
2,A40C U49A,0.679
3,A40C U49C,0.584
4,A40C U49G,0.658
5,A40C U53A,0.311
6,A40C U53C,0.219
7,A40C U53G,0.15
8,A40C U55A,0.697
9,A40C U55C,0.515
10,A40C U61A,0.304
11,A40C U61C,0.339
12,A40C U61G,0.192
13,A40C U62A,0.385
14,A40C U62C,0.255
15,A40C U62G,0.352
16,A40C U64A,0.357
17,A40C U67A,0.518
18,A40C U67G,0.744
19,A40C U69A,0.865
20,A40C U69C,0.965
21,A40G A42G,0.822
22,A40G A42U,0.763
23,A40G A51C,0.927
24,A40G A51U,0.891

row,Variant,self-cleavage
1,A40G A59C,0.568
2,A40G A59G,0.935
3,A40G A60C,0.329
4,A40G A60G,0.859
5,A40G A60U,0.486
6,A40G C45A,0.884
7,A40G C45U,0.933
8,A40G C54U,0.952
9,A40G C57G,0.326
10,A40G C63A,0.689
11,A40G C63G,0.563
12,A40G C63U,0.915
13,A40G C66A,0.54
14,A40G C66U,0.982
15,A40G G41A,0.706
16,A40G G41C,0.433
17,A40G G41U,0.722
18,A40G G47A,0.987
19,A40G G47U,1.02
20,A40G G48A,1
21,A40G G48C,0.98
22,A40G G48U,0.969
23,A40G G50A,0.918
24,A40G G50C,0.943

row,Variant,self-cleavage
1,A40G G50U,0.971
2,A40G G56A,0.949
3,A40G G56U,0.895
4,A40G G58A,0.912
5,A40G G58C,0.973
6,A40G G58U,0.963
7,A40G G65A,0.756
8,A40G G65C,0.434
9,A40G G68A,0.954
10,A40G G68C,0.953
11,A40G U43A,0.809
12,A40G U43C,0.764
13,A40G U43G,0.614
14,A40G U44C,0.485
15,A40G U44G,0.843
16,A40G U46A,0.971
17,A40G U46C,0.942
18,A40G U46G,0.977
19,A40G U49A,0.969
20,A40G U49C,0.877
21,A40G U49G,0.999
22,A40G U53A,0.759
23,A40G U53C,0.649
24,A40G U53G,0.813

row,Variant,self-cleavage
1,A40G U61A,0.863
2,A40G U61C,0.48
3,A40G U61G,0.823
4,A40G U62C,0.649
5,A40G U64A,0.759
6,A40G U67C,0.901
7,A40G U67G,0.965
8,A40G U69A,1.01
9,A40G U69C,0.718
10,A40G U69G,1.02
11,A40U A42C,0.419
12,A40U A42G,0.189
13,A40U A42U,0.46
14,A40U A51C,0.564
15,A40U A51G,0.842
16,A40U A51U,0.61
17,A40U A52G,0.832
18,A40U A59G,0.887
19,A40U A59U,0.459
20,A40U A60C,0.235
21,A40U A60U,0.41
22,A40U C45A,0.629
23,A40U C45G,0.744
24,A40U C45U,0.799

row,Variant,self-cleavage
1,A40U C54G,0.457
2,A40U C54U,0.759
3,A40U C57G,0.366
4,A40U C63G,0.392
5,A40U C63U,0.77
6,A40U C66A,0.397
7,A40U C66G,0.325
8,A40U C66U,0.729
9,A40U G41A,0.537
10,A40U G47C,0.88
11,A40U G48C,0.893
12,A40U G48U,0.936
13,A40U G50A,0.731
14,A40U G50C,0.643
15,A40U G56A,0.818
16,A40U G65A,0.352
17,A40U G65C,0.304
18,A40U G65U,0.405
19,A40U G68A,0.937
20,A40U G68C,0.876
21,A40U G68U,0.877
22,A40U U43A,0.306
23,A40U U43C,0.485
24,A40U U44C,0.262

row,Variant,self-cleavage
1,A40U U44G,0.623
2,A40U U46A,0.919
3,A40U U46C,0.716
4,A40U U46G,0.878
5,A40U U49A,0.922
6,A40U U49C,0.757
7,A40U U49G,0.816
8,A40U U53C,0.296
9,A40U U55A,0.936
10,A40U U55C,0.828
11,A40U U55G,0.839
12,A40U U61G,0.286
13,A40U U62A,0.436
14,A40U U62C,0.351
15,A40U U62G,0.426
16,A40U U64A,0.435
17,A40U U64G,0.598
18,A40U U67A,0.776
19,A40U U67C,0.845
20,A40U U67G,0.886
21,A40U U69A,0.964
22,A40U U69C,1
23,A40U U69G,0.987
24,G41A A42C,0.588

row,Variant,self-cleavage
1,G41A A42G,0.855
2,G41A A51U,0.511
3,G41A A52G,0.716
4,G41A A52U,0.683
5,G41A A59C,0.358
6,G41A A60C,0.295
7,G41A A60U,0.278
8,G41A C45U,0.677
9,G41A C54G,0.861
10,G41A C54U,0.961
11,G41A C57A,0.283
12,G41A C57G,0.299
13,G41A C57U,0.368
14,G41A C63G,0.348
15,G41A C63U,0.59
16,G41A C66G,0.429
17,G41A G47C,0.913
18,G41A G48A,0.989
19,G41A G50A,0.707
20,G41A G56C,0.31
21,G41A G56U,0.307
22,G41A G65C,0.261
23,G41A G65U,0.379
24,G41A G68C,0.881

row,Variant,self-cleavage
1,G41A G68U,0.913
2,G41A U43A,0.335
3,G41A U43C,0.416
4,G41A U44G,0.307
5,G41A U46A,0.863
6,G41A U46C,0.706
7,G41A U49C,0.825
8,G41A U49G,0.859
9,G41A U53A,0.65
10,G41A U53G,0.566
11,G41A U55A,0.596
12,G41A U55G,0.379
13,G41A U61A,0.463
14,G41A U61G,0.331
15,G41A U62A,0.474
16,G41A U62C,0.383
17,G41A U62G,0.422
18,G41A U64C,0.385
19,G41A U64G,0.501
20,G41A U67A,0.756
21,G41A U67G,0.777
22,G41A U69A,0.912
23,G41A U69C,1.03
24,G41A U69G,1

row,Variant,self-cleavage
1,G41C A42C,0.26
2,G41C A42U,0.504
3,G41C A51C,0.43
4,G41C A51U,0.542
5,G41C A52C,0.332
6,G41C A59C,0.225
7,G41C A59G,0.845
8,G41C A60C,0.262
9,G41C A60G,0.304
10,G41C A60U,0.366
11,G41C C45A,0.34
12,G41C C45G,0.38
13,G41C C45U,0.501
14,G41C C57U,0.329
15,G41C C63A,0.296
16,G41C C66G,0.369
17,G41C G47A,0.904
18,G41C G48C,0.869
19,G41C G48U,0.966
20,G41C G56A,0.667
21,G41C G56U,0.369
22,G41C G58A,0.772
23,G41C G65A,0.426
24,G41C G65U,0.327

row,Variant,self-cleavage
1,G41C G68A,0.927
2,G41C G68C,0.902
3,G41C G68U,0.933
4,G41C U43A,0.31
5,G41C U43C,0.486
6,G41C U43G,0.25
7,G41C U44A,0.377
8,G41C U44C,0.342
9,G41C U44G,0.317
10,G41C U46A,0.921
11,G41C U49A,0.988
12,G41C U49C,0.871
13,G41C U53A,0.463
14,G41C U53C,0.283
15,G41C U55C,0.394
16,G41C U61C,0.241
17,G41C U61G,0.345
18,G41C U62C,0.365
19,G41C U62G,0.363
20,G41C U64A,0.369
21,G41C U64G,0.426
22,G41C U67A,0.716
23,G41C U67G,0.787
24,G41C U69C,1.01

row,Variant,self-cleavage
1,G41C U69G,0.959
2,G41U A51G,0.837
3,G41U A51U,0.609
4,G41U A52C,0.431
5,G41U A52G,0.749
6,G41U A59C,0.412
7,G41U A59G,0.933
8,G41U A60G,0.612
9,G41U A60U,0.374
10,G41U C45A,0.422
11,G41U C45G,0.47
12,G41U C54A,0.972
13,G41U C54G,0.95
14,G41U C54U,0.94
15,G41U C63U,0.691
16,G41U C66A,0.441
17,G41U C66G,0.428
18,G41U G47C,0.967
19,G41U G47U,0.999
20,G41U G48C,0.952
21,G41U G48U,0.99
22,G41U G50C,0.54
